Test: soluble on expression in E. coli; label from the status in PepcDB or PDB records

Sequence	soluble on expression in E. coli
MHFETVIGLEVHVELKTDSKMFSPSPAHFGAEPNSNTNVIDLAYPGVLPVVNKRAVDWAMRAAMALNMEIATESKFDRKNYFYPDNPKAYQISQFDQPIGENGYIDIEVDGETKRIGITRLHMEEDAGKSTHKGEYSLVDLNRQGTPLIEIVSEPDIRSPKEAYAYLEKLRSIIQYTGVSDVKMEEGSLRCDANISLRPYGQEKFGTKAELKNLNSFNYVRKGLEYEEKRQEEELLNGGEIGQETRRFDESTGKTILMRVKEGSDDYRYFPEPDIVPLYIDDAWKERVRQTIPELPDERKAKYVNELGLPAYDAHVLTLTKEMSDFFESTIEHGADVKLTSNWLMGGVNEYLNKNQVELLDTKLTPENLAGMIKLIEDGTMSSKIAKKVFPELAAKGGNAKQIMEDNGLVQISDEATLLKFVNEALDNNEQSVEDYKNGKGKAMGFLVGQIMKASKGQANPQLVNQLLKQELDKRLEHHHHHH	soluble
MSLNFYYATSILIKEVVVSTKWLLGISLMLSTVAQANENSNQDTDISIPSPWKHQVEFGYQAHSGNTESESLNSRLKSEYTMGRHRTYGEWKFYKLDKNGKEDKRQSTFAFQSDYKLGPKTYLYGSFYGTNSRYTAYFKDHTLSGGLGYQFAYTDEMVLELELGPGFRYQKPNLDEIDDDDIVFPDLVQEAIFRSNLKAEWQALNNLRFEAEMTMVSGRSNTSLDSNISLTNDITDHIALKIRQSRQYHNRMPEGLSKADSVISVNLLFEFEGHHHHHH	not soluble
MRIAIDFDGTIVEHRYPRIGKEIPFAIATLKQLQTERHLLVLWTVREGKLLDEAVDFCRKRGLEFYAVNANHPEEEVRNDMTSPCRKVVADLYIDDLNVGKLPDWGAIYEMIHNRWSYERYLNEIHGFEKQKKISIWKRIFR	not soluble
MLKTPLYESHMAANAKMVDFSGWSMPINYGSQIQEHNNVREDCGIFDVSHMLAVDIQGSEAEKFLRYLLANDVAKLQENKAQYGCMLNHDAGIVDDLITYKVTDEHFRIVVNAGNRESDVAWFNQNAQNFDVAITPQTDLAIVAVQGPKAVAVIKRVVTKEIATEIEALLPFSFKFFSKWMVARTGYTGEDGFEVILPATQVKKFWDSLLENGAQPAGLGARDTLRLEAGMHLYGADMDTSTTPLERGLGWSVDLSDEHRDFIGKKAYFAKKAQGVDTKWVGVVLKTKGVLRAGQEIDFDNGEKGYITSGSFSPTLKVAIGLAYVPKQADNPVVNIRGKELEVELVKPKFVKNGKSLI	not soluble
MGSDKIHHHHHHLINVAETTGLQTKAFVGEADFQIVDYAGDKCIQFKNDSVFNAMLWEMNDMSEEERNNIFSGAGFVSQWQLMQEADQEQELIVDNYEKDLSQPWPAHQIKEFKQKYDDVFMFEPYDSTDFIAHYKLKGSTYSSFVNRRGVFLIGDSVAHAPVYKALEEYFGSGISLYGNNEATNEKNDINLAESKYQIPGGDYVKVRAIPRFIELQTIENKNYLSLGFDYLSQKKKVLWKKHRTMIILRLTASGSGSGFEVYNVSIKNYQNKNGVTILLHTDVYNKLLAKDQGGMLGHVGENPRNSVTIVTPPRFEFSGRMEIWSDEMPESNKGTAKISLKEDW	not soluble
MKKYTEMTKDELMQEKTALEAEYEKIKNLGLSLDMSRGKPGADQLDLSLPMLDVLKSDSDMKSESGLDVRNYACLDGIPEAKALIAGMVGAKPEQAIVYGNSSLNIMYDQVARAFIFGLCGNTPWCKLDKVKFLCPVPGYDRHFAITEEFGVEMINIPMTEDGPDMDMVEKYVNNDASVKGIWCVPKYSNPQGVVYSDETVERFAKLKPAADDFRIFWDNAYTVHHLYDDKQAEIPNILELCEKEGNPDMVFEFCSTSKVTFPGAGVAGICTSEKNREDIKKRLTIQTIGHDKINQLRHARFFKDVDGIKAHMAKHAALIRPKFELVENILTDEIASRGIGTWVKPLGGYFFGFEALSGCAKEIVAKCKEAGVTMTGAGSPFPYKKDPDDSVIRIAPTYPSLDELKKAAEVFVIVTRLVSVNKLLEA	not soluble
MSSQPRFIHLRTHTDFSMIDSIVKVKPLVKACAANEMVAMGLTDFTNFCGVVSFYSEMLSSGMKPIIGADVKVKSPLCGDEYFDLTLLAKNNEGYRNITLLLSKAYQRGYNDLPYIDQDWLIEHRDGVIILSGGTQGDVGKKLLKENVAEIESAVAFYQEFFADHFYLALSRTGRPNEERYIQAALKLAERCDLPLVATNDVMFLNTEDFEAHEIRVAIHDGYTLDDPKRPKCYTSQQYFRSEEDMCKLFADIPSALENTLLIAQRCSVTLRLGQYFLPQFPTGDLSTEDFLVQKSKEGLEERLVFLFPDEKVRLEKRPKYDERLQVELDVINQMGFPGYFLIVMEFIQWSKDNDIPVGPGRGSGAGSLVAYALKITDLDPLEFDLLFERFLNPERVSMPDFDVDFCMDGRDRVIEHVAETYGRGAVSQIITFGTMAAKAVIRDVGRVLGHPYGFVDRISKLIPPDPGMTLAKAFETEPQLQTAYDSDEEVRALINMARKLEGVTRNAGKHAGGVVISPTLITDFAPLYCDNEGLHPVTHFDKNDVEYAGLVKFDFLGLRTLTIIKWALDIINVRMVREGKPRVDIAAIPLDDPESFELLKRSETTAVFQLESRGMKDLIKRLQPDCFEDIIALVALFRPGPLQSGMVDNFIDRKHGREEVSYPDAEYQHASLKPILEPTYGIILYQEQVMQIAQVLAGYTLGGADLLRRAMGKKKPEEMAKQRLVFKEGAEKNGIDGELSMKIFDLVEKFAGYGFNKSHSAAYALVSYQTLWLKTHFPAEFMAAVMTSEMDNTDKIVGLYDECLRMGLKVTPPDINIGKHHFSVNEQGEIVYGIGAIKGVGEGPIEALVAARNEGGIFKDLFDLCARVDLKKINRRTFESLIMSGAFDKLGPHRAALSKNLEDALRASDQHAKDEAMGQTDMFGVLTETHEDVENAYANTPPYTEKQILDGERETLGLYLSSHPVSRYLKELSHYTSTRLKDLAPNRRGQISTVAGLVVASRIAMTKKGNRLGIATLDDRSGRLDLTLFGESLEQFGEKLQKDTVIVASGQVSFDDFSGGLKMTVRELMTLDEARSRYVKSLAISLSEHQITPSFIKQFKALLEPVSGGTLPINVYYQSPKGRALLRLGVQWSIIPTDEILTELVNLLGESAVELEFE	not soluble
MVRKQKRARLIYNPTSGQEIMKKNVAEVLDILESFGYETSAFQTTPRADSAKNEAARASQAGFDLVIAAGGDGTINEVVSGIAPLKRRPKVAIIPTGTTNDFARALKIPRGNPVEATKLIGKNQTIHMDIGRAYNDKYFINIAAAGSLTELTYSVPSQLKTMFGYLAYLVKGAELLPRVRNVPVKVFYDHGVFEGEASMIFVALTNSVGGFETIAPDAKLDDGKFTLILVKTANLFELTDLIRLVLTGGRHINHKKIEYIKTSYLKIIPQGNPPKRMMINLDGEYGGDAPIELRNLKNHIEFFANTDEISDDAITLDTEELVLEAIAQKFAREAESLDEMDKTKEQD	soluble
MSLLLIKNGKIITMTGKNYDKGCVLIDNGKIVDVNENIKENKYMKVIDASNFTVIPGIIDAHCHIGIDEQDIGKVGLDINEVSNPVTPNLRAIDAINPMDSAFNDAVMGGITGVMTGPGSANVIGGQFVFMKTYGKCIDDMVVLEPAAVKAALGENPKRVYGGKGKAPVTRMAIAALLREALTEAENYKNKKEALKAKGERIEKNLKLEALIPVIEGNIPLKVHAHRADDILTAIRIAKEFKINITLDHCTEGHLIPEKVKESGYPVLVGPSLTSRSKSEVSNKTFKTPGVLANMGIKTAIITDHPVIPIQYLPICAGLSCREGMKVEDALYAITLNAAEICGVASRLGSIEKGKDADIAIFDGNPMEVFTKTIYTIIDGNIVYKHECYEGHHHHHH	soluble
SLQLKSEKARIILSGEPTLLIDKGKIDISALKSQRLNINDLMEELRLKNYFNVEDIEYAILETSGQISLIPKTHLTNATKEDLNLKVKQENVPITIILDGKVNTDNIKYLNKDADWLMKELKKNKIDSPKDVFLALIDSKGKFYYQKYNN	soluble
MLYLHDIWVNWFEGEENGYNVCHFHEWRKDDQIELLDQVPLLKVSPALFHYIENSLSDLPKPLLDDVHQKAYVRKNHERIQLDYCFVVTDGAGVLAVDTIGYQIPIRKSRLIPRQEQLVYEMAAEAEERDYPLPRYEKEYHILSPAPELMCGLTRKERQLKQLLFMALDQLYSTKNTAQMRYWYTEWAPEKYAAIQKMSFDEAWEQLYNETKYGWSERHEQLCENLIKGQPFFEKLWEMEQEPKVN	soluble
MGESPSNPSGLTFRLADDRKLKAIYVPAAEKASVNLGFLRHALVAGGFADLFIYDHALVELIKRYNAATQEFVYDVGEQRDGTYIIRNTPDNIEAYLTLTRPYGGKPVCPEQLHQALREQGVIYGVLTDEIETAIEAGEATDLLIARGIPPEQGTDAELVSLIPQARDRQPELQDNETVDYRDRGEISSVKAGDPLMRRIPPTPGKPGTNIMGKEVPAPPAKDLKFTPNLPGTTFAPDDPDLLIAAIDGQPVLVANGVMIEPVIKIKNVDLSSGNISFKGSVDISGDITPGMTVRATGDITVGGVVEGATLEAEGDIVVRGGIIGPGENRDPKGKSGQERALIRAKGNIEALFVENSLVEAGGMIQIAGFAMQSNLVAGTQVVVGQEGTTKGHIIGGSCQAVSRIQAVTLGSHAGVHTTVSVGVNPHVKEKLSTVKLKIAEAERELDELTKRLDYFASTPLKGSPEQINETRQAKDKLVTALSELKGERKRLEKRLEQASDALIRVERAVLSGVVISIGTKTLEVKDDMEGGITFRLEDDAIVASQLEHHHHHH	not soluble
MGSDKIHHHHHHMRFDLIDLRLFLHILETGSITHGAARANMSLPSASARLRGMEDALGMPLLERGRRGVESTPTGDTLAHHARLVLGQIERMQGELGEHQEGRKACIRLWTNTAAITEFLPAAIGLFLRDHPNVQIDLKERQSSETVKAVLSGAAEIGIISDAVEHGALQTFPFAIDKLVLVTSRDDALATCRRTTLAEVADREFIGLSADSALQAYLGERALLAGQPLSFRTHVRTFDAVCCMVDQGAGVGIVPATAAKRYRGTPGIRTIELTDSWATRQLLICMRDLNAMARPEKALVRHLAGI	not soluble
MSTAAETTGGDIEPWEEVTPDAARRLLVAAVEAFAERGYHATTTRDIAGRAGMSPAALYIHYKTKEELLHRISRIGHTRAVAILRSAAQGEGSAAERLADAVSSFVRWHAGRRTTARVVQYELDALGPEAREEILTLRRQCDAAVRGIIDDGVAAGEFDVPDVKGTTLAVLSLCIDVARWFNVNGPRTPDEVGALYADLVLRMVGAEPSGATAQR	not soluble
MPTLKVAYIPEHFSTPLFFAQQQGYYKAHDLSIEFVKVPEGSGRLINLLNSNEVDIAIGLTEAFIADIAKGNENIHVLDTYVKSPLLWAVSTGSNRDDVTDAKQLKRIGVSRIGSGSYVMSFVLAHQLGVPSFDQFQVLSNFKNLRDSVNLKDGVEGSDAFMWEYFTSKKYYDNHEIKQIDQIYTPWSSWVVATSSDSLQAKSDVIKNFIDAVNQGIQYYNEHVDEAIEYISSNLDYSAEDAKEWTKTVEFNSRIGKTPLDWDTIVVKTKDTLKLAGVLAESDDVILKRLNSNVKKTNL	soluble
MAHHHHHHMECVELTPSESGTINRRGAIPANLAGNSYYARRYSTQGGTRRGTLDATEPHVQFRSGDLVLQLCLSAVPRELSHKRIVDVTGIQTSFHNVSERQSKALATVEEAMQTMHLHDGHEVPALQRGDVNLVRLQPRCVYISPPPSHSFAAGEAVAVDLRHLSSALRPLSNPYVLLAQTRRLSFRSEMEAVQTAQVMASFLTELRGGGAVSEGCGSSVGVFGSAAVLRPVVRDGHLVAMTLCPPRDTARGCRRR	not soluble
MAKYTRDDILAQAKQLAKMIAETEEVDFFKRAEEKIHQNEKVRTLINELKSLQKQAVNLQHYGKHEALKQVEAKIDAIYEELSQIPIVSEFQQSQSDVNDLLQLVASTISNTVTDEILASTGGDVLRGETGAALRYNKHGGCH	not soluble

From the DeepSol protein solubility set
